The target in one data set is T1, GST-Clp (Clp) (Lysobacter enzymogenes, UniProt Q7WZ07).
T1 construct: labelled with NT-647-NHS for MST
T1 sequence (Q7WZ07 1-229): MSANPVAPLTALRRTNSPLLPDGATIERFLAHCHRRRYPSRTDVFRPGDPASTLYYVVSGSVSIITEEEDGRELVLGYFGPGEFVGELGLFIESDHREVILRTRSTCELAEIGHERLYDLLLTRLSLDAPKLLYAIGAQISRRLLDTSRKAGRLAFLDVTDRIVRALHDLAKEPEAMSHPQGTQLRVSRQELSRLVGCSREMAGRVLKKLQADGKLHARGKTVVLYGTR
Briefly: microscale thermophoresis, NT-647-labelled GST-Clp. The note with it: 25 °C; 10 μM labelled protein (130 mM NaHCO3, 50 mM NaCl); no Hcp; protein concentration above Kd. The class given is binding.

Data set [1] has as its target GST-Clp (Lysobacter enzymogenes) (UniProt Q7WZ07). Put plainly: MST; 10 μM NT-647-NHS labelled GST-Clp or GST in label buffer (130 mM NaHCO3, 50 mM NaCl) titrated with unlabelled Hcp-His6 in PBS; Monolith NT.115, 25°C, 80% MST power, 20% LED power.
Data set [2] relates to Clp (Lysobacter enzymogenes OH11). Put plainly: MST. The note with it: MST: 0.5 uM FAM-DNA, Clp in PBS, 25 C.

Take `Nc1nc2c(ncn2[C@@H]2O[C@@H]3COP(=O)(O)O[C@H]4[C@@H](O)[C@H](n5cnc6c(=O)[nH]c(N)nc65)O[C@@H]4COP(=O)(O)O[C@H]3[C@H]2O)c(=O)[nH]1` [c-di-GMP]: the Kd on GST-Clp (Clp) is 1500 nM.
Hcp-His6 (natural protein) showed an equilibrium dissociation constant (Kd) in data set [1] of 1510 nM.
On to PA site probe, HSAF operon promoter, for which the Kd in data set [2] was 390 nM.

Source of the values: publication PMC7577485, “An intrinsic mechanism for coordinated production of the contact-dependent and contact-independent weapon systems in a soil bacterium” (PLoS Pathogens, 2020).
